The source of these data is PMC4486081 (Oncogene, 2015).

The target of the experiment is Recombinant full length FAK (focal adhesion kinase), GST-tagged, phospho-Y397 (UniProt Q05397 1-1052, phosphotyrosine at 397). Description: co-IP.
Chain of Recombinant full length FAK (focal adhesion kinase), GST-tagged, phospho-Y397 (Q05397 whole entry): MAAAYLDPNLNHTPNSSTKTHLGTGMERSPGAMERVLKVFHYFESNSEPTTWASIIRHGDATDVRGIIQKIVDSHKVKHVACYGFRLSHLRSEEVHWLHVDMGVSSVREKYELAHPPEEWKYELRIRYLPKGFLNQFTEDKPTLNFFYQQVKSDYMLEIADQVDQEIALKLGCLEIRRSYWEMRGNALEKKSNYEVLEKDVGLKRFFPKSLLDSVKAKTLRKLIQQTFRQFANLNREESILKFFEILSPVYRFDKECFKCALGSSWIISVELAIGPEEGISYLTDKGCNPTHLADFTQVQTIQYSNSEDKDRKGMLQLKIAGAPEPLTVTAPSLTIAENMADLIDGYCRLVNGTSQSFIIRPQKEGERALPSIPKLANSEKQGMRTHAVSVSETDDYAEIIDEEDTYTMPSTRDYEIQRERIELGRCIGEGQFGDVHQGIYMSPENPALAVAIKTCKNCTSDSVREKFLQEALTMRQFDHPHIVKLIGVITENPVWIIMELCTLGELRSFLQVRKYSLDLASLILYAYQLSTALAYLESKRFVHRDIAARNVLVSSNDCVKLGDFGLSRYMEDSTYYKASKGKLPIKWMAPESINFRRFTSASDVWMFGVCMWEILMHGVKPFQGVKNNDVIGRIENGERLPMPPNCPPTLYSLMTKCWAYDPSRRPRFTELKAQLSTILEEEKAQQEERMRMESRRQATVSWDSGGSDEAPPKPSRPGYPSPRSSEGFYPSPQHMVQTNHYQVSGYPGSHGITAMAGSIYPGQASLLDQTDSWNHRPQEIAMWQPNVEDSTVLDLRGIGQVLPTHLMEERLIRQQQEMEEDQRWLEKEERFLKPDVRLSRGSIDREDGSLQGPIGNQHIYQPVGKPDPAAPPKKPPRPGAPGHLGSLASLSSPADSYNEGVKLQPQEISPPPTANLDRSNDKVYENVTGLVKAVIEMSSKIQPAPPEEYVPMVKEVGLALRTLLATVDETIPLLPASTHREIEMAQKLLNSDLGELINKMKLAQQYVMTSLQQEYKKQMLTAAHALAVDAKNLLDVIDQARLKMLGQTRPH

B1: Recombinant active PKM2 (pyruvate kinase M2), 1-531 aa with N-terminal His-tag (enzyme)
chain: not shown
Turning to B1, the binding result is on record as “binds”.
